Laboratory results taken from the array DNA melting data of Ke et al..

Experiment: melting temperature; melt of duplexes
Settings: sodium 0.0675 M; strand 1 µM

Substance | Tm
CGACGTGCCACATGTGCTG+CAGCACATAATGCACGTCG ((((((((...((((((((+))))))))...)))))))) | 47.5 °C
CGACGTGCGACATGTGCTG+CAGCACATTAAGCACGTCG ((((((((...((((((((+))))))))...)))))))) | 53.3 °C
CGACGTGCTCGATGTGCTG+CAGCACATGAAGCACGTCG (((((((((..((((((((+))))))))..))))))))) | 52.8 °C
CGACGTGCTGTATGTGCTG+CAGCACATACTGCACGTCG ((((((((.((((((((((+)))))))))).)))))))) | 57.8 °C
CGACGTGCGTGATGTGCTG+CAGCACATCTTGCACGTCG ((((((((..(((((((((+)))))))))..)))))))) | 55.6 °C
CGACGTGCTGAATGTGCTG+CAGCACATTTCGCACGTCG ((((((((..(((((((((+)))))))))..)))))))) | 53.1 °C
CGACGTGCATAATGTGCTG+CAGCACATGAGGCACGTCG ((((((((.(.((((((((+)))))))).).)))))))) | 53.2 °C
CGACGTGCTCAATGTGCTG+CAGCACATGCTGCACGTCG ((((((((...((((((((+))))))))...)))))))) | 47.9 °C
CGACGTGCTGTATGTGCTG+CAGCACATGGCGCACGTCG ((((((((...((((((((+))))))))...)))))))) | 48.9 °C
CGACGTGCCCTATGTGCTG+CAGCACATATCGCACGTCG ((((((((..(((((((((+)))))))))..)))))))) | 48.1 °C
CGACGTGCATAATGTGCTG+CAGCACATGGCGCACGTCG ((((((((...((((((((+))))))))...)))))))) | 53 °C
CGACGTGCCTAATGTGCTG+CAGCACATCGCGCACGTCG ((((((((...((((((((+))))))))...)))))))) | 47 °C
CGACGTGCTGAATGTGCTG+CAGCACATACGGCACGTCG ((((((((.(.((((((((+)))))))).).)))))))) | 54.1 °C
CGACGTGCGATATGTGCTG+CAGCACATGGTGCACGTCG ((((((((...((((((((+))))))))...)))))))) | 49.2 °C
CGACGTGCATAATGTGCTG+CAGCACATTGGGCACGTCG ((((((((..(((((((((+)))))))))..)))))))) | 54.2 °C
CGACGTGCGCTATGTGCTG+CAGCACATCAAGCACGTCG ((((((((...((((((((+))))))))...)))))))) | 51.4 °C
CGACGTGCGCAATGTGCTG+CAGCACATAAGGCACGTCG ((((((((...((((((((+))))))))...)))))))) | 50.9 °C
CGACGTGCGATATGTGCTG+CAGCACATGCAGCACGTCG ((((((((...((((((((+))))))))...)))))))) | 53.6 °C
CGACGTGCGCGATGTGCTG+CAGCACATATGGCACGTCG ((((((((...((((((((+))))))))...)))))))) | 50.1 °C
CGACGTGCGAGATGTGCTG+CAGCACATCTTGCACGTCG ((((((((.((((((((((+)))))))))).)))))))) | 60.2 °C
CGACGTGCGAAATGTGCTG+CAGCACATTGTGCACGTCG ((((((((..(((((((((+)))))))))..)))))))) | 52.4 °C
CGACGTGCCGCATGTGCTG+CAGCACATTATGCACGTCG ((((((((...((((((((+))))))))...)))))))) | 46.4 °C
CGACGTGCATGATGTGCTG+CAGCACATAAAGCACGTCG ((((((((.(.((((((((+)))))))).).)))))))) | 50.7 °C
CGACGTGCGTAATGTGCTG+CAGCACATTCTGCACGTCG ((((((((..(((((((((+)))))))))..)))))))) | 53.4 °C
CGACGTGCACTATGTGCTG+CAGCACATCGAGCACGTCG ((((((((.(.((((((((+)))))))).).)))))))) | 46.7 °C
CGACGTGCCGTATGTGCTG+CAGCACATCTGGCACGTCG (((((((((..((((((((+))))))))..))))))))) | 55.3 °C

Substance | Tm
CGACGTGCAGCATGTGCTG+CAGCACATCAGGCACGTCG ((((((((...((((((((+))))))))...)))))))) | 47.3 °C
CGACGTGCTATATGTGCTG+CAGCACATGACGCACGTCG ((((((((...((((((((+))))))))...)))))))) | 47.6 °C
CGACGTGCATGATGTGCTG+CAGCACATACAGCACGTCG ((((((((...((((((((+))))))))...)))))))) | 49.5 °C
CGACGTGCCTTATGTGCTG+CAGCACATATGGCACGTCG (((((((((.(((((((((+))))))))).))))))))) | 57.9 °C
CGACGTGCCCGATGTGCTG+CAGCACATTCCGCACGTCG ((((((((...((((((((+))))))))...)))))))) | 48.2 °C
CGACGTGCAATATGTGCTG+CAGCACATACGGCACGTCG ((((((((..(((((((((+)))))))))..)))))))) | 49.4 °C
CGACGTGCTAAATGTGCTG+CAGCACATAGTGCACGTCG ((((((((...((((((((+))))))))...)))))))) | 45.2 °C
CGACGTGCCTTATGTGCTG+CAGCACATTCGGCACGTCG (((((((((..((((((((+))))))))..))))))))) | 53 °C
CGACGTGCCAAATGTGCTG+CAGCACATATTGCACGTCG ((((((((.(.((((((((+)))))))).).)))))))) | 48.9 °C
CGACGTGCAGTATGTGCTG+CAGCACATAGTGCACGTCG (((((((((.(((((((((+))))))))).))))))))) | 55.1 °C
CGACGTGCTTTATGTGCTG+CAGCACATAGAGCACGTCG (((((((((.(((((((((+))))))))).))))))))) | 55.2 °C
CGACGTGCCGCATGTGCTG+CAGCACATGGTGCACGTCG ((((((((..(((((((((+)))))))))..)))))))) | 52 °C
CGACGTGCTGCATGTGCTG+CAGCACATACAGCACGTCG ((((((((((.((((((((+)))))))).)))))))))) | 58.2 °C
CGACGTGCACTATGTGCTG+CAGCACATAGGGCACGTCG ((((((((.((((((((((+)))))))))).)))))))) | 58.9 °C
CGACGTGCCTAATGTGCTG+CAGCACATGGAGCACGTCG ((((((((...((((((((+))))))))...)))))))) | 51.9 °C
CGACGTGCGGAATGTGCTG+CAGCACATTGCGCACGTCG (((((((((.(((((((((+))))))))).))))))))) | 61.2 °C
CGACGTGCTCCATGTGCTG+CAGCACATCTCGCACGTCG ((((((((...((((((((+))))))))...)))))))) | 46.2 °C
CGACGTGCATGATGTGCTG+CAGCACATCATGCACGTCG (((((((((((((((((((+))))))))))))))))))) | 63.6 °C
CGACGTGCAGCATGTGCTG+CAGCACATTCAGCACGTCG ((((((((.(.((((((((+)))))))).).)))))))) | 47.8 °C
CGACGTGCACAATGTGCTG+CAGCACATGTGGCACGTCG ((((((((...((((((((+))))))))...)))))))) | 51.2 °C
CGACGTGCGCCATGTGCTG+CAGCACATAGTGCACGTCG ((((((((.(.((((((((+)))))))).).)))))))) | 49 °C
CGACGTGCACCATGTGCTG+CAGCACATCTGGCACGTCG ((((((((...((((((((+))))))))...)))))))) | 43.7 °C
CGACGTGCGGCATGTGCTG+CAGCACATCAAGCACGTCG ((((((((...((((((((+))))))))...)))))))) | 53.6 °C
CGACGTGCATGATGTGCTG+CAGCACATGTAGCACGTCG ((((((((...((((((((+))))))))...)))))))) | 49.9 °C
CGACGTGCACGATGTGCTG+CAGCACATCACGCACGTCG ((((((((..(((((((((+)))))))))..)))))))) | 51.9 °C
CGACGTGCCAAATGTGCTG+CAGCACATTGGGCACGTCG (((((((((.(((((((((+))))))))).))))))))) | 59.5 °C
